Source: patent US20260116946A1, “NOVEL CD200 FUSION PROTEINS” (DUCENTIS BIOTHERAPEUTICS LIMITED, priority 2022, published 2026)
“Also recorded” adds a separate entry of the source.

Tests used:
[1] = PK study in serum of cynomolgus monkeys; format: in vivo; conditions: 5 mg/kg i.v. bolus; for AUC 0-t: t = 28 days
Experimental: 2 cynomolgus monkeys per group (one male, one female) were dosed at 5 mg/kg with an i.v. bolus of protein at time 0. Blood samples were taken for PK analysis at the following timepoints: pre-dose, 0.25 hr, 0.5 hr, 1 hr, 4 hr, 8 hr, 24 hr, day 3, day 5, day 7, day 10, day 12, day 14, day 21, day 28.
At least 0.8 mL blood samples were collected from a cephalic or saphenous vein at sampling time points from the two animals. For samples collected within the first hour of dosing, a ±1 minute deviation in sample collection time was acceptable. For the remaining time points, samples that were taken within 5% of the scheduled time are acceptable. All blood samples were collected into commercially available tubes containing coagulant. The tubes containing blood samples remained at room temperature for 30 minutes before centrifugation. The samples were centrifuged at 4° C. for 10 minutes at 1500×g within one hour of collection. About 400 μL serum per time point was collected post centrifugation. The samples were then quickly frozen over dry ice and kept at −60° C. or lower until transferred in dry ice for analysis. All samples were uniquely identified to indicate origin and collection time.
The concentrations of analyte in serum were determined using a bioanalytical ELISA method. 96-well ELISA plates were coated overnight at 4° C. with 1 μg/ml Goat anti-Human IgG in Carbonate-bicarbonate buffer. After wash and blocking, serial diluted plasma samples were added and then biotin labeled Goat anti-human IgG (0.0625 ug/mL) was used as detection antibody. HRP-Streptavidin and TMB substrate were used for colour development. The reaction was stopped after approximately 5-10 minutes through the addition of 2M HCl. The absorbance was read at 450 nm and 540 nm using a microplate spectrophotometer (SpectraMax® M5e). The OD value of the samples were substituted into the standard curve to obtain the plasma concentration. The detection limit of this ELISA method LLOQ for Fc+Fc is 1 ng/mL.
The serum concentration of ARQ-234 in monkeys was subjected to a non-compartmental pharmacokinetic analysis by using the Phoenix WinNonlin software (version 8.1, Pharsight, Mountain View, CA). The linear/log trapezoidal rule was applied in obtaining the PK parameters.

U937-CD200R cells [2] = assay: Cytokine release (IL-6 inhibition) assay, LPS stimulated U937-CD200R cells; format: cell-based, human
Experimental: Cytokine production, including IL-6, from these cells can be induced by stimulation with PMA and then LPS.
50,000 U937 cells per well were seeded in 96 well plates and differentiated following incubation for 72 hours with 100 nM PMA. Following differentiation, the PMA containing media was replaced with fresh assay media and incubated for a further 2 hours prior to treatment. CD200-Fc constructs were added with or without Fc block to the cell culture and incubated for 1 hour, then cells were stimulated with 100 ng/ml LPS and incubated for a further 24 hours. Following the final incubation, cell supernatant (diluted 1:10) was collected and assayed for IL-6 secretion by ELISA assay using a commercially available kit.
Cell line construction, cytokine inhibition testing, and cell binding testing were conducted using similar techniques as in Example 3 above.

U937-CD200R cells [3] = assay: Cell binding to U937-CD200R cells by flow cytometry; conditions: 1, 4 and 24 hours at 37° C., anti-human IgG secondary, compared to DS-155
Experimental: U937 cells were re-suspended with a density of 0.1 million cells per test with 50 μL FACS buffer (1×PBS+2% FBS).
Treatment with CD200-Fc proteins (50 μL) was performed starting from 10 μg/mL with 3-fold dilutions up to 10 concentrations with FACS buffer and incubated for 1-hour, 4-hours and 24-hours at 37° C. At the end of each time point, cells were collected and washed. 10 μg/mL of anti-human secondary antibody was added and incubated for 30 minutes at 4° C. Cells were washed post incubation and stained to check viability (1 μL dye per million cells per mL 1×PBS) for 20 minutes at 4° C. Cells were washed and fixed with Fixation buffer (100 μL per test) at 4° C. for 20 minutes. Post incubation, cells were washed and the pellet was re-suspended in FACS buffer (100 μL per test) for data acquisition on the flow cytometer.
For the 24-hour time point, treatment with CD200-Fc protein was performed with cell culture media. Wash step=addition of 200 μL FACS buffer and centrifugation at 1400 RPM.
The binding of ARQ-234 to U937-CD200R cells was compared to a wild type control CD200-Fc (DS-155) at 1, 4 and 24 hrs at human physiological temperature (37° C.) and binding was detected using flow cytometry with an anti-human IgG antibody.

For “ARQ-234: mutated human CD200-Fc fusion protein: CD200 K130Y, I131Y directly fused to IgG4 Fc S228P, M428L, N434S”, the “average half-life in the two animals tested” value ([1]; serum) was 15.44 days, the “Cl_obs” value ([1]; animal #3001 (M)) was 7.45 mL/day/kg and the “MRTINF_obs” value ([1]; animal #3001 (M)) was 17.3 days. For the same substance, the “Vss_obs” value ([1]; animal #3001 (M)) was 0.129 L/kg, the “Cmax” value ([1]; animal #3001 (M), serum) was 127 µg/mL and the “t1/2” value ([1]; animal #3001 (M), serum) was 12.4 days. The “AUC 0-t” value ([1]; animal #3001 (M)) was 12927 µg·h/mL, the “Cl_obs” value ([1]; animal #3002 (F)) was 6.56 mL/day/kg and the “MRTINF_obs” value ([1]; animal #3002 (F)) was 25.3 days. The “Vss_obs” value ([1]; animal #3002 (F)) was 0.166 L/kg, the “Cmax” value ([1]; animal #3002 (F), serum) was 124 µg/mL and the “t1/2 (h)” value ([1]; animal #3002 (F), serum, footnote: half-life not accurate (AUC_%Extrap_obs >20% or Rsq_adjusted <0.9)) was 443^ h. The “AUC 0-t” value ([1]; animal #3002 (F)) was 12259 µg·h/mL, the “inhibition of LPS stimulated IL-6 release” value (U937-CD200R cells [2]; PMA differentiated U937-CD200R cells, 100 ng/ml LPS, 24 hours, ELISA) was “able to inhibit LPS stimulated IL-6 secretion in a concentration dependent manner” and the “effect of Fc block on inhibition of IL-6 release” value (U937-CD200R cells [2]; with versus without Fc block reagent) was “No significant difference in inhibition”. The “binding to U937-CD200R cells” value (U937-CD200R cells [3]) was “superior binding of ARQ-234 to CD200R-expressing cells compared to DS-155; also recorded: more potent target engagement compared to DS-155”.
